Measurements from US20100204099A1 (ALBERT EINSTEIN COLLEGE OF MEDICINE OF YESHIVA UNIVERSITY, published 2010).
Where no end group is shown, it is not given here.

Legend:
[1] = molecular target: T1, IGF binding protein-3 (IGFBP-3) (human, UniProt P17936 28-291, 125-I-labeled when used as probe in the dot blot); experiment: dot blot on nitrocellulose probed with 125-I-labeled IGFBP-3, autoradiography and densitometry (FIG. 17A)
T1 construct: also called hIGFBP-3; non glycosylated hIGFBP-3

[2] = molecular target: T1, IGF binding protein-3 (IGFBP-3); experiment: dot blot of peptides probed with 125-I-labeled IGFBP-3 (FIG. 17A)

T1 sequence (P17936 28-291 limits assumed): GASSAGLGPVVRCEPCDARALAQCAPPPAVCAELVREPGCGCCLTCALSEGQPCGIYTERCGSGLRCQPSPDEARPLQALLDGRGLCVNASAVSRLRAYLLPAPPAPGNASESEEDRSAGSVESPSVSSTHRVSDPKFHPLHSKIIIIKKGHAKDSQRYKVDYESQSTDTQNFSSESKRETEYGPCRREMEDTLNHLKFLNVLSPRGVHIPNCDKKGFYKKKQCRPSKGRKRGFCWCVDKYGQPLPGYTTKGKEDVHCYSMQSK

MAPRGASCLLLLTSEIDLPVKRRA (also called F6A HN; F6A-HN) [Humanin analog F6A]
binding result [1]: no binding (tested: 50 ng of peptide blotted)

MAPRGASCLLLLTGEIDLPVKRRA (not fully specified, also called F6AHNG; HN) [Humanin analog HNGF6A]
binding result [1]: no binding (tested: 50 ng of peptide blotted)

B1: Humanin (peptide)
peptide: MAPRGFSCLLLLTSEIDLPVKRRA
notes: 50 ng was spotted on nitrocellulose in the dot blot; also called HN; human humanin
binding result [2]: binds
